Experimental data reported in patent publication US11453711B2, “Fusion proteins of GLP-1 and GDF15 and conjugates thereof” (BEIJING QL BIOPHARMACEUTICAL CO., LTD., priority 2019, dated 2022).

How the values were obtained:
[1] = Body weight and food intake in lean C57BL/6 mice, lysine conjugated compounds, 15 nmol/kg daily sc 14 days; type: in vivo; conditions: for Body weight reduction at 15 nmol/kg (% reduction compared to vehicle)(Day11) / Cumulative food intake reduction at 15 nmol/kg (% reduction compared to vehicle)(Day11): C57 mice, 15 nmol/kg daily sc
Procedure: FIGS. 1A-1F show In vivo activities of fusion proteins. To evaluate the body weight and food intake effects of the fusion proteins, 10 week old male C57BL/6J mice were dosed everyday subcutaneously with 15 nmol/kg protein for 14 days. Food intake and body weight were measured daily. FIGS. 1A and 1B show body weight loss upon protein treatments from Day1 to Day15. […] FIGS. 1D and 1E show cumulative food intake with protein treatments from Day1 to Day15. […] Vehicle: 1.42 mg/mL disodium phosphate dihydrate, 14 mg/mL propylene glycol pH7.4. Data are expressed as mean values and standard error (SEM) for FIGS. 1A, 1B and 1C. n=5 for each treatment group. For FIGS. 1D, 1E and 1F, a pooled food intake was measured for each treatment group.
10 week old male C57BL/6 mice were injected everyday subcutaneously with 15 nmol/kg of the fusion protein conjugates (i.e., MLC002, MLC 004, MLC 005, MLC 006, MLC 007, MLC 008, and MLC 009) for 14 days. Food intake and body weight were measured daily and five animals were used for each treatment group. Body weight (BW) was monitored for each individual animal, but food intake for each group animals was measured together. Day 1 and Day 14 are first day and last day of molecule dosage. % BW loss=100*(BW on Day n-BW on Day 1)/(BW on Day 1). Cumulative food intake on Day n represents sum of food intake from Day 1 to Day n. Data are indicated as mean values and standard error (SEM) or pooled values. Statistical analysis was performed by One-way ANOVA. Body weight reduction on Day 11 is calculated by −1*(% BW loss−% BW loss of vehicle group); Cumulative food intake reduction is calculated by −100*(cumulative food intake-cumulative food intake of vehicle)/cumulative food intake of vehicle.

[2] = Body weight and food intake in C57BL/6 mice, fusion protein conjugates, 30 nmol/kg daily 10 days; type: in vivo
Outline: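 Male C57BL/6 mice received fusion protein conjugates by daily subcutaneous injection, with dosing running from Day 1 to Day 10. Body weight was recorded daily per animal and food intake daily per group. Body weight reduction was expressed relative to vehicle percent loss from Day 1. Cumulative food intake reduction was expressed as percent decrease versus vehicle.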

[3] = Efficacy in db/db mice: body weight, food intake, glucose, biomarkers, daily sc 14 days; type: in vivo
Procedure: (§1) FIGS. 4A-4D show In vivo efficacy in db/db mice. To evaluate the body weight, food intake and glucose effects of the fusion proteins, 8 week old male db/db mice were dosed everyday subcutaneously with 30 nmol/kg protein for 14 days. […] Compared to Vehicle control: ***, p<0.001. Data are expressed as mean values and standard error (SEM) for FIGS. 4A, 4B and 4D. n=5 for each treatment group. For FIG. 4C, a pooled food intake was measured for each treatment group.
FIGS. 5A-5F show In vivo efficacy in db/db mice. To evaluate the body weight, food intake and glucose effects of the fusion proteins, 8 week old male db/db mice were dosed everyday subcutaneously with different concentrations of proteins for 14 days. FIGS. 5A and 5B show body weight loss upon protein treatments from Day1 to Day15. […] Compared to Vehicle control: ***, p<0.001; **, p<0.01; *, p<0.05; ns, non-statistically significant; FIGS. 5D and 5E show cumulative food intake with protein treatments from Day1 to Day15. […] Compared to Vehicle control: ***, p<0.001**, p<0.01; *, p<0.05; ns, non-statistically significant. Data are expressed as mean values and standard error (SEM) for FIGS. 5A, 5B, 5C and 5F. n=5 for each treatment group. For FIGS. 5D and 5E, a pooled food intake was measured for each treatment group.
as §1, with “8A-8I” for “4A-4D”, “different concentrations of proteins” for “30 nmol/kg protein”, “FIGS. 8D-8F show body weight loss upon dose titrations of fusion protein conjugates. […]” for “Compared to Vehicle control: ***, p<0.001.”, “8A” for “4A, 4B”, “8C-I.” for “4D.”, “8B,” for “4C,”
Selected fusion protein conjugates are assessed in disease animal models (DIO mice, db/db mice, etc.) to determine body weight, food intake, glucose efficacy with dose responses. Some biomarkers are also measured, including fasting insulin, plasma triglyceride, cholesterol, liver triglyceride, and inflammatory biomarkers (ALT, AST and CRP).
8 week old male db/db mice were injected everyday subcutaneously with designated proteins for 14 days. Age matched lean mice were used as control. Food intake and body weight were measured daily and five animals were used for each treatment group. Fasting glucose were tested on designated days as shown in each figure. Body weight was monitored for each individual animal, but food intake for each group animals was measured together. Day 1 and Day 14 are first day and last day of molecule dosage. % BW loss=100*(BW on Day n-BW on Day 1)/(BW on Day 1). Cumulative food intake on Day n represents sum of food intake from Day 1 to Day n. Terminal blood was collected and EDTA-2K plasma was prepared and frozen at −80° C. for biomarker measurement. Liver was also collected and frozen in liquid nitrogen and store at −80° C. Data are indicated as mean values and standard error (SEM) or pooled values. Statistical analysis was performed by One-way ANOVA.

[4] = Efficacy in DIO mice, daily sc 28 days; type: in vivo, DIO male C57BL/6 mice
Procedure: FIGS. 6A-6E show In vivo efficacy in DIO mice. To evaluate the body weight, food intake and glucose effects of the fusion proteins, 17 week old DIO mice (C57BL/6 mice on high fat diet for 13 weeks) were dosed everyday subcutaneously with different concentrations of proteins for 28 days. […] FIGS. 6D and 6E show body weight change with dose titrations of MLC089 and MLC093 at 3, 10 and 30 nmol/kg. Data are expressed as mean values and standard error (SEM) for FIGS. 6A, 6C, 6D and 6E. n=5 for each treatment group. For FIG. 6B, a pooled food intake was measured for each treatment group.
17 week old DIO male C57BL/6 mice (˜45 g) were injected everyday subcutaneously with designated proteins (i.e., MLC089, MLC093) for 28 days. Food intake and body weight were measured daily and five animals were used for each treatment group. Fasting glucose was also monitored on designated days. Body weight and glucose were monitored for each individual animal, but food intake for each group animals was measured together. Day 1 and Day 28 are first day and last day of molecule dosage. % BW loss=100*(BW on Day n-BW on Day 1)/(BW on Day 1). Cumulative food intake on Day n represents sum of food intake from Day 1 to Day n. Terminal blood was collected and EDTA-2K plasma was prepared and frozen at −80 C for biomarker measurement. Liver was also collected and frozen in liquid nitrogen and store at −80 C. Data are indicated as mean values and standard error (SEM) or pooled values.

[5] = PK study in non-human primates, single sc dose 5 nmol/kg, plasma ELISA; conditions: monkey, single sc dose 5 nmol/kg; for Cmax: read-out: Cmax (nmol/L)
Procedure: Plasma samples were collected pre-dose (−5 min), 2 hr, 4 hr, 6 hr, 8 hr, 24 hr, 48 hr, 72 hr, 96 hr, 120 hr, 144 hr, 216 hr, 288 hr, 360 hr, 432 hr and 504 hr after the injection. The concentrations of the fusion protein conjugates in the plasma were measured by an ELISA assay which has immunoreactivity towards both GDF15 and intact N-terminal of GLP-1. Based on the graph showing plasma concentration of each protein versus time after subcutaneous injection, the pharmacokinetic parameters (including Tmax, Cmax, T1/2, AUC) were calculated by WinNonlin software.

[6] = Pharmacokinetic measurement in mouse, single sc dose 30 nmol/kg, plasma ELISA; conditions: for Cmax: read-out: Cmax (nmol/L), single sc dose 30 nmol/kg; for AUC0-24 h / Terminal t1/2 / Tmax: single sc dose 30 nmol/kg
Procedure: Each fusion protein was injected subcutaneously into C57BL/6 mice (n=3/group) once and plasma samples were collected at designed time points and analyzed by ELISA method. Plasma concentrations are indicated as mean values and standard error (SEM).
6-8 week old male C57BL/6 mice were administrated in a single subcutaneous dose of 30 nmol/kg of the fusion protein conjugates or unconjugated fusion proteins (i.e., MLC002, MLC004, MLC005, MLC006, MLC007, MLC008, MLC009, MLC013, MLC017, MLC047, MLC074, MLC075, MLC089, MLC093, MLC003 and MLC019) (n=3/group). Plasma samples were collected pre-dose (−5 min), 0.5 hr, 1 hr, 2 hr, 4 hr, 6 hr, 8 hr, 12 hr, 24 hr, 48 hr and 72 hr after the injection. The concentrations of the fusion protein conjugates in the plasma were measured by an ELISA assay which has immunoreactivity towards both GDF15 and intact N-terminal of GLP-1. Based on the graph showing plasma concentration of each protein versus time after subcutaneous injection, the pharmacokinetic parameters (including Tmax, Cmax, T1/2, AUC) were calculated by WinNonlin software.

[7] = 30 nmol/kg, FIG. 8A-C, versus Semaglutide, Tirzepatide and MLC014

Row | Molecule | Body weight reduction at 15 nmol/kg (% reduction compared to vehicle)(Day11) [1] | Cumulative food intake reduction at 15 nmol/kg (% reduction compared to vehicle)(Day11) [1] | Body weight reduction at 30 nmol/kg (% reduction compared to vehicle)(Day11) [2] | Cumulative food intake reduction at 30 nmol/kg (% reduction compared to vehicle)(Day11) [2] | AUC0-96 h [5] | Terminal t1/2 [5] | Tmax [5] | Cmax [5] | Cmax [6] | AUC0-24 h [6] | Terminal t1/2 [6] | Tmax [6] | also measured
1 | Semaglutide [reference compound] | 7.2% | 23.2% | 2.6% | 20.9% | – | – | – | – | – | – | – | – | –
2 | MLC089: fusion polypeptide SEQ ID NO: 379 conjugated with Moiety B at 39C of Linker (conjugate, Moiety B conjugated at linker Cys39) HGEGTFTSDVSSYLEEQAAKEFIAWLVRGGGGAQPGAQPGAQPGAQPGAQPGAQPGAQPGAQPGQEPGQCPGQEPGAQPGQEPGAQPGQEPGAQPGQEPGAQPGQEPGAQPARQGDHCPLGPGRCCRLHTVRASLEDLGWADWVLSPREVQVTMCIGACPSQFRAANLHAQIKTSLHRLKPDTVPAPCCVPASYNPMVLIQKTDTGVSLQTYDDLLAKDCHCI | – | – | 24.6% | 29.9% | 3.413 µM·h | 54 h | 8 h | 70.5 nmol/L | 116 nmol/L | 1.9822 µM·h | 14.7 h | 10.7 h | body weight loss [3, 7]: more body weight loss, food intake suppression and glycemic control; food intake suppression [3, 7]: more body weight loss, food intake suppression and glycemic control; glycemic control [3, 7]: more body weight loss, food intake suppression and glycemic control; efficacy ([3]; FIG. 8 study): better efficacy than Semaglutide and GDF15 derivative (MLC014); body weight reduction efficacy ([4]; DIO mice, 30 nmol/kg daily 28 days, FIG. 6A): much better body weight reduction efficacy than Semaglutide and GDF15 derivative (MLC014); dose dependence of body weight reduction ([4]; DIO mice, 3, 10 and 30 nmol/kg, FIGS. 6D and 6E): dose dependent efficacy on body weight reduction; fasting glucose ([4]; DIO mice, FIG. 6C): reached similar level to Semaglutide; efficacy ([4]; DIO study, FIG. 6): better efficacy than Semaglutide and GDF15 derivative (MLC014)
3 | MLC004: fusion polypeptide SEQ ID NO: 251 conjugated with Moiety A at 26K of GLP-1 (conjugate, Moiety A conjugated at K26) HGEGTFTSDVSSYLEEQAAKEFIAWLVRGGGGQEPGAQPGQEPGAQPGQEPGAQPGQEPGAQPGQEPGAQPGQEPGAQPGAQPGAQPGAQPGAQPGAQPGAQPGAQPGAQPARQGDHCPLGPGRCCRLHTVRASLEDLGWADWVLSPREVQVTMCIGACPSQFRAANLHAQIKTSLHRLRPDTVPAPCCVPASYNPMVLIQRTDTGVSLQTYDDLLARDCHCI | 13.9% | 21.8% | 18.3% | 35.0% | 0.79 µM·h | 13 h | 8 h | 32.1 nmol/L | 15.1 nmol/L | 0.1745 µM·h | 7.4 h | 3.3 h | BW reduction ([1]; 15 nmol/kg daily sc 14 days, versus Semaglutide): statistically significantly enhanced BW loss efficacy than Semaglutide
